Data taken from PMC5498992.
Several values for one entry are separate records, joined by “and”; a condition that tells them apart may be missing. Equal values may be shown once.

Target: chitin binding domain-intein fusion of the ToxR periplasmic domain (CBDI-ToxRp) (V. cholerae El Tor N16961), P15795
Experiment: pull-down

B1: ToxS periplasmic domain (ToxSp), purified, cleaved from the chitin binding domain-intein tag, P24003 25-173 (domain or fragment)
chain: SDFKLEQVLTSREWQSKMVSLIKTNSNRPAMGPLSRVDVTSNVKYLPNGTYLRVSIVKLFSDDNSAESVINISEFGEWDISDNYLLVTPVEFKDISSNQSKDFTDEQLQLITQLFKMDAQQSRRVDIVNERTILFTSLSHGSTVLFSNS
modifications: not checked
percent of input pulled down: 6% and 9%
